Results published in publication PMC5449658.

Columns and labels:
[1] = target: TacAT^WT complex (one H6-TacT with one TacA) (Salmonella enterica subsp. enterica serovar Typhimurium LT2) (UniProt Q8ZL98); assay: SEC; Superose 12 10/300 GL; 50 mM HEPES pH 7.0 at 4°C, 150 mM NaCl, 20% glycerol; co-purified TacAT complexes applied; molecular weight from a standard curve of gel filtration standards
[2] = target: H6-TacT^WT toxin (Gcn5-related N-acetyltransferase TacT) (Salmonella enterica subsp. enterica serovar Typhimurium LT2) (UniProt Q8ZL98); assay: SEC

Sequence of UniProt Q8ZL98 (Q8ZL98 whole entry): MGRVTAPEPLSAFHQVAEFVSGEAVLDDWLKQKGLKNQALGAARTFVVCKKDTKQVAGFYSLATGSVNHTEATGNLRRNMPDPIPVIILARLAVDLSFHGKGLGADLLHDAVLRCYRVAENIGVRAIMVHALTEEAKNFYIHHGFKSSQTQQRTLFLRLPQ

Substance: TacAT^WT complex (one H6-TacT with one TacA) (from UniProt Q8ZL98 1-161)
- stoichiometry N [1]: 2

Substance: TacA^WT antitoxin (tagless native TacA) (natural protein)
- stoichiometry N [2]: 1
